Measured values as given in patent US20230374087A1, “METHOD TO IMPROVE PROTEIN QUALITY CONTROL” (The Johns Hopkins University, priority 2020, published 2023).

Key:
TTR-V122I = assay: TTR abundance in hiPSC-CMs by western blot; type: cell-based, human; conditions: cGMP 100 mM, TTR-V122I 5 μM, 14 days
Description: (§1) Human induced pluripotent stem cell derived cardiomyocytes (hiPSC-CMs) were infected with Ad-Chip WT, SE, or SA (10 MOI), in the presence or absence of protein kinase G (PKG) stimulation via cGMP (100 mM) and exposed to media containing TTR-V122I (5 μM) or control for 14 days. Cells were lysed and TTR abundance was determined by western blotting for TTR with a total protein stain used to show equal loading.
as §1, with “Lamp2A knockdown” for “protein kinase G (PKG) stimulation”, “siRNA (siLamp2A, 100 μM)” for “cGMP (100 mM)”, “loading. Knocking down Lamp2A removes the method of protein degradation known as chaperone mediated autophagy (CMA).” for “loading.”

CHIP pS20 = assay: Immunoblot for phospho-S20 CHIP in myocytes; type: cell-based, rat; conditions: cardiomyocytes; cGMP or SIL; DT3 1 μM
Description: Tissue and cultured cardiomyocytes were lysed in 1× lysis buffer (Cell Signaling Technology), protein concentration was measured by bicinchoninic acid assay (Pierce), and extracts were subjected to SDS-PAGE using Novex Tris-Glycine Gels (4-20% gradient gel, Life Technologies) or Mini-protean TGX Gels (4-20% gradient gel, Bio-Rad), transferred to nitrocellulose membranes, and probed with various primary antibodies (CHIP (#2080S), Hsc70 (#8444S), p-CHIP S20 (Custom antibody, AbMart Inc., Shanghai, China; Project: 25011-1), Myc (#2276S), GAPDH (#2118S), and α-tubulin (#3878S) (Cell Signaling) and ubiquitin antibody (#SAB4503053) from Sigma), and fluorescence-labeled secondary antibodies (Licor, #926-32211, 926-32210, 926-68023, or 926-68022). Gels were imaged (Odyssey, Licor) and band intensity quantified (Odyssey Software 3.1).
Human CHIP peptide fragments containing amino acid residues 13-30 were incubated with cGMP/PKG and assayed by MS. […] Phosphorylation was also observed at neighboring S24 and S26, but only when a S20A CHIP mutant was used (FIG. 2D). This indicates the primary target for PKG on CHIP is at S20. A monoclonal phospho-antibody generated against the S20 site in CHIP was tested in vitro with recombinant PKG1α and CHIP, verifying a consistent phospho-S20-CHIP signal. Use of a CHIP-S20A mutant CHIP confirmed specificity (FIG. 2E).

[1] = system: neonatal rat cardiomyocytes (NRCMs)
Description: After overnight culture, subsets of NRCMs were infected with adenovirus (AdV) containing a FLAG-tagged PDE5, FLAG control, Myc-tagged CHIP WT or K31A (provided by Dr. Cam Patterson), S20E or S20A (Welgen Inc., Worcester, MA). Forty-eight hours after infection, cells were exposed to either simulated ischemia (SI) or normal conditions. SI involved incubating cells in DMEM containing deoxyglucose (20 mM), NaCl (125 mM), KCl (8 mM), KH2PO4 (1.2 mM), MgSO4 (1.25 mM), CaCl2) (1.2 mM), NaHCO3(6.25 mM), sodium lactate (5 mM), and HEPES (20 mM) with a pH of 6.6. Cells were then placed in an incubator chamber (Billups-Rothenberg) with 95% nitrogen, 4% carbon dioxide, and 1% oxygen. Normoxic controls were incubated in DMEM supplemented with 10% FBS in air composed of 95% carbon dioxide and 5% oxygen. RNA or protein was harvested after 48 hours of SI. Cells were also treated with sildenafil (1 μM) or vehicle, or small interference RNA (siRNA, 100 pM) specific for rat Stub1 (Qiagen, Cat. #: SI01532251) or scrambled control provided 24 hours after plating and transfected with Xfect (Takara) per manufacturer protocol.
Lactate dehydrogenase (LDH) leakage and (3-[4,5-dimethylthiazol-2-yl]-2,5-diphenyltetrazolium bromide) (MTT) were assessed in cultured cardiomyocytes and media after SI from the same culture dish. LDH was assayed by commercial assay (Roche) following manufacturer's protocol, read in 96 well microplates on a Spectramax M5 (Molecular Devices) at 490 nm absorbance. For MTT, cells were washed in phosphate-buffered saline, MTT (Sigma-Aldrich) working solution added to the culture dish, incubated at 37° C., solubilized with acidic isopropanol, transferred to a 96 well plate, and read at 570 nm with background subtraction at 650 nm on a Spectramax M5.

[2] = biological target: T1, Hsp40-stimulated ATPase activity of Hsc70 (Homo sapiens, UniProt P11142); assay: Chaperone refolding ATPase activity assay; type: biochemical; conditions: CHIP 0.5-6 μM, Hsc70 0.5 μM, Hsp40 0.25 μM
T1 construct: His-tag (N); made in house; host or cells: E. coli BL21(DE3)
Description: Human HSP40 (DnaJB1), human CHIP and CHIP point mutants in pET30a with a C-terminal His-tag and hHsc70 (HSPA8) wild type with an N-terminal His-tag in pCOLA-Duet1 were expressed in BL21(DE3) and purified on Ni-NTA (Qiagen). Hsc70 and CHIP proteins were induced and expressed for 22 hours at 18° C. Hsp40 protein was induced and expressed for 5 hours at 25° C. Required stock solutions of proteins were prepared by diluting high concentrated stocks in protein storage buffer into protein storage buffer, 20 mM HEPES (pH7.4), 150 mM NaCl. Hsc70 and Hsp40 were used at a concentration of 0.5 μM and 0.25 μM, respectively, with a gradient of CHIP protein concentrations (0.5-6 μM). Hsp40-stimulated ATPase activity of Hsc70 was measured using fluorescent polarization with the […]® ADP2 FP Assay (BellBrook Labs, 3010-1K) on a Clariostar plate reader (BMG) in 384 well black, non-binding plates (Greiner, 784900). Optimized instrument settings were used: Excitation wavelength. 590 nm; Emission wavelength: 675 nm; Required value: 5%; Target mP: 20; Gain A: 1824; Gain B: 1854; Focal Height: 12.4 mm. Values of μM ADP formed in the reactions were interpolated from an ATP/ADP standard curve run in parallel.

T1 sequence (P11142 whole entry): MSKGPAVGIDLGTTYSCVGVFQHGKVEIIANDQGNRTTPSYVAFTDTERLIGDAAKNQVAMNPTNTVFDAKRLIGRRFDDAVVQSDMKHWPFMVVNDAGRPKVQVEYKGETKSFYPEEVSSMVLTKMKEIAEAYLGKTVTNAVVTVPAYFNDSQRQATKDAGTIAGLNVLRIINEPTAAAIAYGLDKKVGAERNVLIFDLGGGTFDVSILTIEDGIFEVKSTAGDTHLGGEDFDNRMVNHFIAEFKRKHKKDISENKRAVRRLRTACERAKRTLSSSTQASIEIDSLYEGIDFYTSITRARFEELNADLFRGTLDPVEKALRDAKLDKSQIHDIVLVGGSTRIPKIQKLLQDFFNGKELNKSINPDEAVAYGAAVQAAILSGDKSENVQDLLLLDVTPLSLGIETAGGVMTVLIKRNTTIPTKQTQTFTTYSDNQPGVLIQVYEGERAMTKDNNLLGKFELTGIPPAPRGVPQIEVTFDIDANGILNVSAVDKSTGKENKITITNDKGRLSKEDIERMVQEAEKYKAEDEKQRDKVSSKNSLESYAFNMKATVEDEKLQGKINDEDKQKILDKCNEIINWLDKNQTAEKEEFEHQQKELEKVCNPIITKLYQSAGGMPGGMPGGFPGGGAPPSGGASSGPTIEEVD

Molecule	SI-induced cytotoxicity (LDH/MTT ratio) [1]	also measured
Nc1nc2c(ncn2[C@@H]2O[C@@H]3COP(=O)(O)O[C@H]3[C@H]2O)c(=O)[nH]1 [cGMP, cyclic guanosine monophosphate, reference compound]	–	TTR accumulation with PKG stimulation (TTR-V122I): reduce TTR accumulation in Chip WT cells but not in Chip SA cells; CHIP pS20 level (CHIP pS20): CHIP pS20 increased
S24E: S24E mutant CHIP overexpressed in neonatal myocytes (protein, UniProt Q9WUD1 1-304, looked up, variant S24E) E3 ubiquitin-protein ligase …: MKGKEEKEGGARLGTGGGGSPDKEPSAQELKEQGNRLFVGRKYPEAAACYGRAITRNPLVAVYYTNRALCYLKMQQPEQALADCRRALELDGQSVKAHFFLGQCQLEMESYDEAIANLQRAYSLAKEQRLNFGDDIPSALRIAKKKRWNSIEERRIHQESELHSYLTRLIAAERERELEECQRNHEGHEDDGHIRAQQACIEAKHDKYMADMDELFSQVDEKRKKRDIPDYLCGKISFELMREPCITPSGITYDRKDIEEHLQRVGHFDPVTRSPLTQEQLIPNLAMKEVIDAFISENGWVEDY	no significant impact on the cytotoxic response to SI or SI+SIL	–
S20A/S24A: S20A/S24A combination mutant CHIP (protein, UniProt Q9WUD1 1-304, looked up, variant S20A S24A) E3 ubiquitin-protein ligase …: MKGKEEKEGGARLGTGGGGAPDKAPSAQELKEQGNRLFVGRKYPEAAACYGRAITRNPLVAVYYTNRALCYLKMQQPEQALADCRRALELDGQSVKAHFFLGQCQLEMESYDEAIANLQRAYSLAKEQRLNFGDDIPSALRIAKKKRWNSIEERRIHQESELHSYLTRLIAAERERELEECQRNHEGHEDDGHIRAQQACIEAKHDKYMADMDELFSQVDEKRKKRDIPDYLCGKISFELMREPCITPSGITYDRKDIEEHLQRVGHFDPVTRSPLTQEQLIPNLAMKEVIDAFISENGWVEDY	very similar to those with S20 mutations alone	–
S24A: S24A mutant CHIP overexpressed in neonatal myocytes (protein, UniProt Q9WUD1 1-304, looked up, variant S24A) E3 ubiquitin-protein ligase …: MKGKEEKEGGARLGTGGGGSPDKAPSAQELKEQGNRLFVGRKYPEAAACYGRAITRNPLVAVYYTNRALCYLKMQQPEQALADCRRALELDGQSVKAHFFLGQCQLEMESYDEAIANLQRAYSLAKEQRLNFGDDIPSALRIAKKKRWNSIEERRIHQESELHSYLTRLIAAERERELEECQRNHEGHEDDGHIRAQQACIEAKHDKYMADMDELFSQVDEKRKKRDIPDYLCGKISFELMREPCITPSGITYDRKDIEEHLQRVGHFDPVTRSPLTQEQLIPNLAMKEVIDAFISENGWVEDY	no significant impact on the cytotoxic response to SI or SI+SIL	–
S20E/S24E: S20E/S24E combination mutant CHIP (protein, UniProt Q9WUD1 1-304, looked up, variant S20E S24E) E3 ubiquitin-protein ligase …: MKGKEEKEGGARLGTGGGGEPDKEPSAQELKEQGNRLFVGRKYPEAAACYGRAITRNPLVAVYYTNRALCYLKMQQPEQALADCRRALELDGQSVKAHFFLGQCQLEMESYDEAIANLQRAYSLAKEQRLNFGDDIPSALRIAKKKRWNSIEERRIHQESELHSYLTRLIAAERERELEECQRNHEGHEDDGHIRAQQACIEAKHDKYMADMDELFSQVDEKRKKRDIPDYLCGKISFELMREPCITPSGITYDRKDIEEHLQRVGHFDPVTRSPLTQEQLIPNLAMKEVIDAFISENGWVEDY	very similar to those with S20 mutations alone	–
CHIP-K31A: CHIP Lys 31 (K30 in humans) to Ala mutant that abolishes CHIP chaperone interactions (protein, left off: small tags and cut ends) MKGKEEKEGGARLGAGGGSPEKSPSAQELAEQGNRLFVGRKYPEAAACYGRVITRNPLVAVYYTNRALCYLKMQQHEQALADCRRALELDGQSVKAHFFLGQCQLEMESYDEAIANLQRAYSLAKEQRLNFGDDIPSALRIAKKKRWNSIEERRIHQESELHSYLSRLIAAERERELEECQRNHEGDEDDSHVRAQQACIEAKHDKYMADMDELFSQVDEKRKKRDIPDYLCGKISFELMREPCITPSGITYDRKDIEEHLQRVGHFDPVTRSPLTQEQLIPNLAMKEVIDAFISENGWVEDY	–	inhibition of Hsp70 ATPase activity [2]: an effect that was lost
